The results in this text go back to the supplement of paper PMC10567573.

First the molecules themselves.
B1: MATN2 (parent)
chain: VNVPGSFVCQCYSGYALAEDGKRC
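Further: lentivirally expressed fusions sorted by FACS into six bins by GFP to DsRed ratio, PSI derived from sequencing read proportions per bin multiplied by bin number.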

In the data set the parent is B1. Nature of the data set: protein stability index of a GFP-peptide fusion (GPS, HEK-293T) (PSI 1-6); higher = more stable. Particulars: c terminus: a fixed tail appended.
Take MNVPGSFVCQCYSGYALAEDGKRC [V1M]: the protein stability index was determined as 1.87.

As for INVPGSFVCQCYSGYALAEDGKRC [V1I], the protein stability index turned out to be 2.43.

Regarding HNVPGSFVCQCYSGYALAEDGKRC [V1H], the protein stability index was found to be 1.96.

NNVPGSFVCQCYSGYALAEDGKRC [V1N]: the protein stability index turned out to be 2.06.

As for PNVPGSFVCQCYSGYALAEDGKRC [V1P], the protein stability index was 2.86.

Turning to QNVPGSFVCQCYSGYALAEDGKRC [V1Q], the protein stability index stood at 2.01.

With ENVPGSFVCQCYSGYALAEDGKRC [V1E], the protein stability index came to 2.59.

For ANVPGSFVCQCYSGYALAEDGKRC [V1A], the protein stability index was 2.14.

As to KNVPGSFVCQCYSGYALAEDGKRC [V1K], the protein stability index was found to be 1.92.

As to VNVPGSFVCQCYSMYALAEDGKRC [G14M], the protein stability index came to 2.52.

In the case of VNVPGSFVCQCYSPYALAEDGKRC [G14P], the protein stability index was 1.78.

In the case of VNVPGSFVCQCYSFYALAEDGKRC [G14F], the protein stability index came to 2.6.

As for VNVPGSFVCQCYSQYALAEDGKRC [G14Q], the protein stability index stood at 1.83.

VNVPGSFVCQCYSNYALAEDGKRC [G14N]: the protein stability index turned out to be 1.56.

For the variant VNVPGSFVCQCYSLYALAEDGKRC [G14L], the protein stability index is 3.03.

With VNVPGSFVCQCYSAYALAEDGKRC [G14A], the protein stability index amounted to 2.37.

Take VNVPGSFVCQCYSGYALAEDGRRC [K22R]: the protein stability index was determined as 1.08.

As to VNVPGSFVCQCYSGYALAEDGMRC [K22M], the protein stability index came to 1.23.

On to VNVPGSFVCQCYSGYALAEDGSRC [K22S], for which the protein stability index is 1.7.

In the case of VNVPGSFVCQCYSGYALAEDGCRC [K22C], the protein stability index turned out to be 3.96.

On to VNVPGSFVCQLYSGYALAEDGKRC [C11L], for which the protein stability index was 2.19.

VNVPGSFVCQRYSGYALAEDGKRC [C11R]: the protein stability index was determined as 3.32.

On to VNVPGSFVCQPYSGYALAEDGKRC [C11P], for which the protein stability index was 2.42.

On to VNVPGSFVCQYYSGYALAEDGKRC [C11Y], for which the protein stability index is 2.1.

Turning to VNVPGSFVCQGYSGYALAEDGKRC [C11G], the protein stability index was 2.75.

For the variant VNVPGSFVCQWYSGYALAEDGKRC [C11W], the protein stability index came to 2.05.

As to VNVPGSFVCQTYSGYALAEDGKRC [C11T], the protein stability index was determined as 2.43.

Turning to VNVPGSFVCQFYSGYALAEDGKRC [C11F], the protein stability index was 2.48.

VQVPGSFVCQCYSGYALAEDGKRC [N2Q]: the protein stability index came to 2.28.

On to VEVPGSFVCQCYSGYALAEDGKRC [N2E], for which the protein stability index turned out to be 3.38.

On to VCVPGSFVCQCYSGYALAEDGKRC [N2C], for which the protein stability index worked out at 2.12.

Take VTVPGSFVCQCYSGYALAEDGKRC [N2T]: the protein stability index amounted to 2.35.

For VSVPGSFVCQCYSGYALAEDGKRC [N2S], the protein stability index is 1.82.

Take VLVPGSFVCQCYSGYALAEDGKRC [N2L]: the protein stability index stood at 2.28.

In the case of VHVPGSFVCQCYSGYALAEDGKRC [N2H], the protein stability index turned out to be 1.97.

Take VVVPGSFVCQCYSGYALAEDGKRC [N2V]: the protein stability index was found to be 1.25.

Turning to VDVPGSFVCQCYSGYALAEDGKRC [N2D], the protein stability index was 2.19.

Turning to VAVPGSFVCQCYSGYALAEDGKRC [N2A], the protein stability index amounted to 1.9.

For VNVPGSFVSQCYSGYALAEDGKRC [C9S], the protein stability index was found to be 3.15.

Take VNVPGSFVNQCYSGYALAEDGKRC [C9N]: the protein stability index turned out to be 3.12.

Consider VNVPGSFVFQCYSGYALAEDGKRC [C9F], for which the protein stability index turned out to be 2.54.

With VNVPGSFVQQCYSGYALAEDGKRC [C9Q], the protein stability index was found to be 2.97.

Take VNVPGSFVDQCYSGYALAEDGKRC [C9D]: the protein stability index was found to be 4.36.

On to VNVPGSFVRQCYSGYALAEDGKRC [C9R], for which the protein stability index was 2.69.

Consider VNVPGSFVKQCYSGYALAEDGKRC [C9K], for which the protein stability index came to 3.08.

As for VNVPGSFVTQCYSGYALAEDGKRC [C9T], the protein stability index is 2.52.

For VNVPGSFVWQCYSGYALAEDGKRC [C9W], the protein stability index worked out at 2.21.

Turning to VNVPGSFVAQCYSGYALAEDGKRC [C9A], the protein stability index stood at 1.81.

Regarding VNVPGSFVEQCYSGYALAEDGKRC [C9E], the protein stability index was found to be 3.33.

As to VNVPGSFVCQCYSGYALAEDGKHC [R23H], the protein stability index stood at 1.62.

Turning to VNVPGSFVCQCYSGYALAEDGKKC [R23K], the protein stability index was determined as 2.99.

Regarding VNVPGSFVCQCYSGYALAEDGKLC [R23L], the protein stability index amounted to 2.62.

As to VNVPGSFVCQCYSGYALAEDGKMC [R23M], the protein stability index stood at 2.32.

Take VNVPGSFVCQCYSGYALAEDGKEC [R23E]: the protein stability index was determined as 2.78.

For the variant VNVPGSFVCQCYSGYALAEDGKYC [R23Y], the protein stability index amounted to 1.83.

Regarding VNVPGSFVCQCYSGYALAEDGKIC [R23I], the protein stability index amounted to 1.67.

Regarding VNVPGSFVCTCYSGYALAEDGKRC [Q10T], the protein stability index is 2.52.

Regarding VNVPGSFVCHCYSGYALAEDGKRC [Q10H], the protein stability index was 1.78.

For VNVPGSFVCWCYSGYALAEDGKRC [Q10W], the protein stability index amounted to 2.32.

For VNVPGSFVCGCYSGYALAEDGKRC [Q10G], the protein stability index was found to be 1.65.

In the case of VNVPGSFVCDCYSGYALAEDGKRC [Q10D], the protein stability index was determined as 2.47.

On to VNVPGSFVCNCYSGYALAEDGKRC [Q10N], for which the protein stability index amounted to 2.31.

Consider VNVPGSFVCFCYSGYALAEDGKRC [Q10F], for which the protein stability index came to 2.64.

VNVPGSFVCCCYSGYALAEDGKRC [Q10C]: the protein stability index stood at 1.7.

For VNVPGSFVCKCYSGYALAEDGKRC [Q10K], the protein stability index was determined as 1.7.

In the case of VNVTGSFVCQCYSGYALAEDGKRC [P4T], the protein stability index stood at 1.

As to VNVDGSFVCQCYSGYALAEDGKRC [P4D], the protein stability index came to 1.91.

With VNVRGSFVCQCYSGYALAEDGKRC [P4R], the protein stability index amounted to 1.33.

As to VNVKGSFVCQCYSGYALAEDGKRC [P4K], the protein stability index is 1.92.

Consider VNVNGSFVCQCYSGYALAEDGKRC [P4N], for which the protein stability index was determined as 1.94.

Take VNVVGSFVCQCYSGYALAEDGKRC [P4V]: the protein stability index was determined as 2.28.

With VNVCGSFVCQCYSGYALAEDGKRC [P4C], the protein stability index turned out to be 2.07.

For VNVLGSFVCQCYSGYALAEDGKRC [P4L], the protein stability index was 1.99.

Consider VNVQGSFVCQCYSGYALAEDGKRC [P4Q], for which the protein stability index was found to be 2.97.

Consider VNVPGSFVCQCYSGYALTEDGKRC [A18T], for which the protein stability index stood at 2.

Consider VNVPGSFVCQCYSGYALEEDGKRC [A18E], for which the protein stability index was found to be 2.56.

As for VNVPGSFVCQCYSGYALPEDGKRC [A18P], the protein stability index is 1.65.

For the variant VNVPGSFVCQCYSGYALQEDGKRC [A18Q], the protein stability index came out at 2.38.

For the variant VNVPGSIVCQCYSGYALAEDGKRC [F7I], the protein stability index worked out at 1.92.

For VNVPGSGVCQCYSGYALAEDGKRC [F7G], the protein stability index is 3.34.

As for VNVPGSMVCQCYSGYALAEDGKRC [F7M], the protein stability index turned out to be 2.7.

Turning to VNVPGSVVCQCYSGYALAEDGKRC [F7V], the protein stability index amounted to 2.19.

For the variant VNVPGSNVCQCYSGYALAEDGKRC [F7N], the protein stability index is 1.06.

VNVPGSCVCQCYSGYALAEDGKRC [F7C]: the protein stability index amounted to 2.28.

For the variant VNVPGSSVCQCYSGYALAEDGKRC [F7S], the protein stability index is 2.62.

Turning to VNVPGSTVCQCYSGYALAEDGKRC [F7T], the protein stability index is 2.88.

On to VNVPGSAVCQCYSGYALAEDGKRC [F7A], for which the protein stability index turned out to be 2.85.

As to VNDPGSFVCQCYSGYALAEDGKRC [V3D], the protein stability index came out at 2.11.

In the case of VNPPGSFVCQCYSGYALAEDGKRC [V3P], the protein stability index amounted to 2.08.

As for VNQPGSFVCQCYSGYALAEDGKRC [V3Q], the protein stability index worked out at 2.26.

Regarding VNMPGSFVCQCYSGYALAEDGKRC [V3M], the protein stability index stood at 2.21.

As for VNRPGSFVCQCYSGYALAEDGKRC [V3R], the protein stability index came to 2.05.

In the case of VNYPGSFVCQCYSGYALAEDGKRC [V3Y], the protein stability index was 2.52.

VNEPGSFVCQCYSGYALAEDGKRC [V3E]: the protein stability index is 1.19.
